Laboratory results from patent US20070173444A1 (AFFYMAX, published 2007).
Bridge positions count the residues as written; N and C are the ends. Ends that are not written are not given here.

T1: IL-5RaECD (the extracellular domain (ECD) of the human IL-5 receptor a chain) (human, UniProt Q01344 21-342, extensively glycosylated)
T1 construct: extracellular domain; also called IL-5RαECD; soluble IL-5Ra
T1 sequence (Q01344 21-342, looked up): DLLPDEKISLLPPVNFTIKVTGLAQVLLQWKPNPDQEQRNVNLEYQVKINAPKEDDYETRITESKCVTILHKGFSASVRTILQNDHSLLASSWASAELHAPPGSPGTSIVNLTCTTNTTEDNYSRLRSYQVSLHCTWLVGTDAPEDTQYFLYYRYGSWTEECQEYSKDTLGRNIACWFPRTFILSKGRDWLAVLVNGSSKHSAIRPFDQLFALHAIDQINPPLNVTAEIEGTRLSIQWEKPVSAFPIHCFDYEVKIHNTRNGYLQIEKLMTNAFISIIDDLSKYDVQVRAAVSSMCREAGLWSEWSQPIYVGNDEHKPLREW

T2: native IL-5R a/β complex on TF-1 cells (human, UniProt Q01344 21-420; P32927 17-897)
T2 sequence (looked up) 1: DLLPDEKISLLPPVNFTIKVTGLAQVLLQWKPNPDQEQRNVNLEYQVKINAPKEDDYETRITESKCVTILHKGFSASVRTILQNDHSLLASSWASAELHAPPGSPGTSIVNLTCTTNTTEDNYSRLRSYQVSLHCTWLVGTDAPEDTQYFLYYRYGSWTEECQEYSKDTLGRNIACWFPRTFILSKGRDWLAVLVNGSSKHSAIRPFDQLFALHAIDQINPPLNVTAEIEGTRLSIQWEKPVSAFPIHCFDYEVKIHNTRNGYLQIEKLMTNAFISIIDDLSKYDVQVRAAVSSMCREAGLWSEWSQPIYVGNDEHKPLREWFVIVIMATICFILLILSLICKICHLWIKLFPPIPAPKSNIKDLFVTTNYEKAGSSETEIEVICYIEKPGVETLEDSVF
T2 sequence (looked up) 2: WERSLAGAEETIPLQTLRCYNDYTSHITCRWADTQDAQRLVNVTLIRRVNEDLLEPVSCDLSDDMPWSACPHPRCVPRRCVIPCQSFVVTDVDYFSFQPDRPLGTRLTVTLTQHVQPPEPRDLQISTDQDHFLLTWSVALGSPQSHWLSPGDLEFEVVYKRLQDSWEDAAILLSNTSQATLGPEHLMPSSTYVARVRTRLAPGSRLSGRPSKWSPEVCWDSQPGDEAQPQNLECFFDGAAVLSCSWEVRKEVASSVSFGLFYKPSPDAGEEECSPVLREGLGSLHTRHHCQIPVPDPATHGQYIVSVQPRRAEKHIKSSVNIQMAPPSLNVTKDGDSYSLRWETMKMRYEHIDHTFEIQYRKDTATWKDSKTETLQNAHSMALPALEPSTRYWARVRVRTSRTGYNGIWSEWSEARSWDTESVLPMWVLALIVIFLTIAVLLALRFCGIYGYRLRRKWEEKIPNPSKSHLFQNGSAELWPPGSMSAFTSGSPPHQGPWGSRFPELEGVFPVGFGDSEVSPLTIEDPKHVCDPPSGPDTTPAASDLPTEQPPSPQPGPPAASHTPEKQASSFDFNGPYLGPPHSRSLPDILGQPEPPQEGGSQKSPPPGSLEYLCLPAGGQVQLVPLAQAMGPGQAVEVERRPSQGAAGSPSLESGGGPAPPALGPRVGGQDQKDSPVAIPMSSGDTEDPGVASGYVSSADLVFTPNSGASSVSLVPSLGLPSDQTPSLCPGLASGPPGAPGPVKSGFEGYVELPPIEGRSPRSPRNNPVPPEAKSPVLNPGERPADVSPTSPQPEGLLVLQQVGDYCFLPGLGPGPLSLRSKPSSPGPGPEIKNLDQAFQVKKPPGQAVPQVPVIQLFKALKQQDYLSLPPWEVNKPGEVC


Key:
[1] = target: T1, IL-5RaECD (the extracellular domain …); test: competition with [125I] IL-5 for binding to IL-5Ra ECD
Method: (§1) Binding affinities of synthetic peptides for IL-5Ra were measured in a competition binding assay using radio-iodinated IL-5. Immulon 4 (Dynatech) microtiter wells were coated with streptavidin (Sigma) by incubating 100 ul of a 50 ug/ml solution in PBS for 30 min. at 37. The wells were blocked with 200 ul of 1% BSA in PBS for 15 min. at 37, followed by 100 III of biotinylated monoclonal antibody, designated mAb 179, at 5 u. g/ml in PBS. Soluble IL-5Ra was then immobilized in the wells by incubating 100 µl of a solution of soluble receptor harvest diluted 1: 5000 in PBS/0.1% BSA for 1 hr. at 4. After washing away unbound receptor, 50 ul of various concentrations of test peptide diluted in PBS/0.1% BSA were added to the wells, followed by 50 µl of a fixed concentration of [₁₂₅I] IL-5 (Amersham). The binding reactions were incubated at 4 C for 2 hr, then washed with PBS to remove unbound [₁₂₅I] IL-5. Bound [₁₂₅I] IL-5 was determined by gamma counting.
(§2) Total binding was defined by the amount of [₁₂₅I] IL-5 bound in the absence of any competitor. Non-specific binding was defined by the amount of [₁₂₅I] IL-5 bound in the presence of 30 nM IL-5. Peptide binding data was analyzed to determine the peptide concentration required to reduce specific [₁₂₅I]

[2] = target: chimeric IL-5Ra/EGFR receptor (human, UniProt Q01344 21-342); test: cell-based or functional assay
[3] = target: T1, IL-5RaECD (the extracellular domain …); test: scintillation proximity competition assay, 20 pM [125I] IL-5, soluble IL-5Ra on beads; dimer of the printed monomer
Method: Binding affinities of synthetic peptides for IL-5Ra were measured in a scintillation proximity assay (SPA) using radio-iodinated IL-5. Streptavidin coated SPA beads (Amersham) were suspended in IL-5 binding buffer (phosphate buffered saline, 0.1% bovine serum albumin, 0.2% NaN3) at 2 mg beads/ml of buffer. Biotinylated mAb 179 was adsorbed onto the beads at a ratio of 2 ig Ab/mg beads by incubating the beads and antibody with agitation for at least 2 h. at 4. The beads were pelleted at 2500 rpm and resuspended at 2 mg/ml in binding buffer. Soluble IL-5Ra was then adsorbed onto the beads by diluting a solution of soluble receptor harvest 1:500 into the bead suspension and incubating with agitation for 2 hr at 4. The beads were again pelleted at 2500 rpm and resuspended at 2 mg/ml in binding buffer. Competition binding assays were carried out in 100p1 reactions in white polystyrene microtiter plates. These reactions contained 0.05 mg of receptor coated SPA beads, various concentrations of test peptide diluted in binding buffer, and 20 pM [₁₂₅I] IL-5 (Amersham). The plates were incubated at room temperature for 1 hour with agitation, then centrifuged for 5 min at 1500 rpm followed by scintillation counting on a Topcount instrument (Packard). Total binding was defined by the amount of [₁₂₅I] IL-5 bound in the absence of any competitor. Non-specific binding was defined by the amount of [₁₂₅I] IL-5 bound in the presence of 30 nM IL-5. Peptide binding data was analyzed to determine the peptide concentration required to reduce specific [₁₂₅I] IL-5 binding by 50% (IC₅₀). In each instance, the dimer has both intramolecular and intermolecular disulfide linkages as shown generically below: […]

[4] = target: T2, native IL-5R a/β complex on TF-1 cells; test: cell-based or functional assay
[5] = target: T2, native IL-5R a/β complex on TF-1 cells; test: cell-based or functional assay; remark: listed apart in the source
[6] = target: T2, native IL-5R a/β complex on TF-1 cells; test: competition with [125I] IL-5 binding to TF-1 cells; AF 18748 as competitor
[7] = target: T1, IL-5RaECD (the extracellular domain …); test: competition with [125I] IL-5 for binding to IL-5Ra ECD; peptide after 10 days (disulfide-linked dimer)
Method: as §1, §2

Row | Binder | IC50 [1] [nM] | EC50 (read off the curve), luciferase reporter activity of IL-5Ra/EGFR Ba/F3 cells [2] [nM] | SPA pIC50 [3] | Microphysiometer pIC50 (block of TF-1 cell response to IL-5) [4] | inhibition of IL-5 induced human eosinophil adhesion to immobilized IgG, IC50 [5] [nM] | IC50 [6] [nM] | IC50 [7] [nM]
1 | H-TGGGDGYVCVEWARCPTCK-OH (disulfide 15-18; also: homodimer via interchain disulfide Cys9-Cys9, Synthetic dimer made with orthogonal protecting groups) [AF 18748 (a dimer of residues 32-50 of SEQ ID NO: 8)] | 0.78 | ~0.03 | 9.1 negative log of the molar IC50 | 9.6 negative log of the molar IC50 | 0.348 | 0.4 | 
2 | TGGGDGYVCVEWARCPTCK (disulfide 15-18; also: dimer, interchain disulfide between Cys9 of each chain, Formed by air oxidation in 50 mM Tris pH 7.8; said to be indistinguishable from AF18748; also called AF17362 after 10 days at room temperature; spontaneously formed disulfide-linked dimer) [dimeric form of AF17362] |  |  |  |  |  |  | 0.55
